Test results reported in publication PMC10284691 (2023).
Where two headings read alike, the source gives them in different places.

T1: BPH14–LRR (purified from insect cells) (rice (Oryza sativa), line RI35 carrying …, biotin (NHS-biotin) in the BLI assays; RED-NHS 2nd Generation dye in the MST assays)
T1 chain: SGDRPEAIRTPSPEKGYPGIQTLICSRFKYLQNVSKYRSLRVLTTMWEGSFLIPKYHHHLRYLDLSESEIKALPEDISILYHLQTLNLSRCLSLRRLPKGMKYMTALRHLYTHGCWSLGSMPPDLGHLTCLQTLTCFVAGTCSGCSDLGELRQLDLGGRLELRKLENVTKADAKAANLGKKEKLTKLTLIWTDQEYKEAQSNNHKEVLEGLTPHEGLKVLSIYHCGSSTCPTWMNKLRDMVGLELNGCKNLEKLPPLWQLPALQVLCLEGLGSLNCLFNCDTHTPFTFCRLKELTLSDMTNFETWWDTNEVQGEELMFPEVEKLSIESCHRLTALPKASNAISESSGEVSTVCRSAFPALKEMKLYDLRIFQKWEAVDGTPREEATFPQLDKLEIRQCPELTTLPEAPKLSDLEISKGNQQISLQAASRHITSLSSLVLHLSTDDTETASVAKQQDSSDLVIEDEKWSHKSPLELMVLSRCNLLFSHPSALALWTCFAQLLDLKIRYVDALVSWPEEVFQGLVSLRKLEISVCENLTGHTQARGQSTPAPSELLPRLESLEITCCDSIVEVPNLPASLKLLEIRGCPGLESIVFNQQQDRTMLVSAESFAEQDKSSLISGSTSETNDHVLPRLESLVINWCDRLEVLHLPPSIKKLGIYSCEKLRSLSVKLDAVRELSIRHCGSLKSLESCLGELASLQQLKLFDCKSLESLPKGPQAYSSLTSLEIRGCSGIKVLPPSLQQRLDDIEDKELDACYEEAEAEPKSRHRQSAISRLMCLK

B1: BISP (purified from insect cells) (natural protein)
chain: SAMRYASGFQNNERQSSEQESYSRSAQSSEKSSSGYQMGEMASAGVGMSSGYGGSGYSSGGGYQQGVGYSGCDSDYSSGGIGGIVNTATGLASSVTGMAGGLGGGGGLADVGGVVNTVSGLADVGGLTNTVSGLADVGGVTNTVGGLVNGIAGGGAGGGLLGGVLGGGDGGCGGNCGGNCGGNCGGRGGGGGGLLGGILGGGSGGGRGARVSARVC
B2: BISP(26–124) (purified from insect cells) (domain or fragment)
chain: SAMRYASGFQNNERQSSEQESYSRSAQSSEKSSSGYQMGEMASAGVGMSSGYGGSGYSSGGGYQQGVGYSGCDSDYSSGGIGGIVNTATGLASSVTGMA

Experiments:
[1] = target: T1, BPH14–LRR (purified from insect cells); test: MST
[2] = target: T1, BPH14–LRR (purified from insect cells); test: MST; competition with BISP(26–124) prebound to LRR
[3] = target: T1, BPH14–LRR (purified from insect cells); test: BLI
[4] = target: T1, BPH14–LRR (purified from insect cells); test: BLI

Row | Binder | Kd [1] [nM] | Ki [2] [nM] | koff [3] [s⁻¹] | koff [4] [s⁻¹]
1 | B1 | 9.72 | 98 | 0.000341 | 
2 | B2 | 56.1 |  |  | 0.000719
